Measured values from patent publication US20260242440A1, “NOVEL MEANS TO MODULATE NMDA RECEPTOR-MEDIATED TOXICITY” (FUNDAMENTAL PHARMA GMBH, priority 2018, published 2026).
Entries after “also recorded” stand apart in the source; their conditions may differ.

These molecules were tested on primary mouse hippocampal neurons (assay: NMDA induced cell death (excitotoxicity) in cultured primary neurons). Conditions: polypeptide expressed via rAAV infection on DIV3; NMDA 20 μM for 10 min; cell death assessed 24 h later.
Type: cell-based
Protocol: Primary mouse hippocampal and cortical neurons were prepared and maintained as known. Briefly, hippocampi or cerebral cortex from P0 C57Bl/6NCrl mice were dissociated and plated at a density of 1.2*105/cm^2 in Growth Medium (GM), consisting of Neurobasal A medium (Gibco™, 10888022), 2% serum free B27™ Supplement (Gibco™, 17504044), 1% rat serum (Biowest, S2150), 0.5 mM L-Glutamine (Sigma, G7513) and 0.5% P-S. Cytosine β-D-arabinofuranoside (AraC; Sigma, C1768; 2.8 μM) was added on DIV3 to prevent the proliferation of glial cells. From DIV8, half of the medium was replaced by GM without Rat serum every 48 h until being used for experiments. 24 h before experiments, GM was replaced with transfection medium (10 mM HEPES, pH 7.4, 114 mM NaCl, 26.1 mM NaHCO3, 5.3 mM KCl, 1 mM MgCl2, 2 mM CaCl2, 30 mM glucose, 1 mM glycine, 0.5 mM C3H3NaO3, and 0.001% phenol red and 10% of phosphate-free Eagle's minimum essential medium, supplemented with 7.5 µg/ml insulin, 7.5 µg/ml transferrin and 7.5 ng/ml sodium selenite (ITS Liquid Media Supplement, Sigma-Aldrich Cat #I3146)). Primary hippocampal neurons were used in live cell imaging, cell death experiments, while cortical neurons were used for mRNA and protein extraction analysis.
All viral particles were produced and purified as known in the art. All TRPM4 derived peptides (comprising SEQ ID NO:5, or any of SEQ ID NO:46 to SEQ ID NO:56) were cloned into rAAV backbone by PCR. shRNA against mouse TRPM4 were designed by BLOCK-iT™ RNAi Designer from Thermofisher to target: […] (SEQ ID NO:44, shTRPM4-1) and […] (SEQ ID NO:45, shTRPM4-2). Scramble shRNA (shSCR) has been tested and proven to have no known targets in mice. GPI anchor ([…], e.g. used in SEQ ID NO:53) sequences were synthesized by Eurofins Genomics (Ebersberg, Germany). All primers were synthesized and all plasmids were confirmed by sequencing by Eurofins Genomics.
In order to investigate the role of TRPM4 in NMDA receptor mediated excitotoxicity, the inventors used RNA interference strategies to knock down TRPM4. Cultured primary mouse hippocampus neurons were infected on day 3 in vitro (DIV3) with recombinant adeno-associated viruses (rAAVs) providing for expression of a scramble control (shSCR), shTRPM4-1 (SEQ ID NO:44) or shTRPM4-2 (SEQ ID NO:45). On DIV15-16, neurons were challenged with N-methyl-D-aspartate (NMDA, 20 μM) for 10 min. After NMDA wash out, neurons were kept in the culture medium for another 24 h before analysis. […] Evidently, TRPM4 is thus involved in the process of NMDA receptor mediated excitotoxicity.
In a next step, the inventors tried to identify regions in the mouse TRPM4 protein potentially involved in NMDA receptor mediated excitotoxicity. For this purpose, polypeptide fragments of mouse TRPM4 protein were generated and their impact on NMDA induced excitotoxicity analysed. To do so, primary neuron cultures were infected with respective rAAVs on DIV3, challenged with NMDA (20 μM) for 10 min on DIV17 and cell death assessed 24 hours later.
The sequence of SEQ ID NO:5 in TRPM4 is located in vivo just beneath the plasma membrane. […] To test this hypothesis, the inventors created a fusion protein comprising SEQ ID NO:5 and a GPI anchor, SEQ ID NO:57. The sequence of the fusion is given in SEQ ID NO:53. Neurons infected with rAAV and expressing SEQ ID NO:47 (control) or SEQ ID NO:53 were exposed to NMDA (20 μM) for 10 min on DIV15-16, with cell death assessed after 24 h.
In a next step, the inventors created a mutant of SEQ ID NO:5, in which two adjacent phenylalanine residues where substituted by tyrosine residues (SEQ ID NO: 54). […] TRPM5 is a protein related to but nonetheless distinct to TRPM4. The region in TRPM5 corresponding to SEQ ID NO:5, SEQ ID NO:55, shares only about 60% sequence identity with SEQ ID NO:5. Neurons were infected on DIV3 with rAAVs expressing SEQ ID NO: 5, SEQ ID NO: 54 or SEQ ID NO:55 and exposed to NMDA (20 μM) for 10 min on DIV17, with cell death assessed 24 h later. […]

Molecule	protection against NMDA induced cell death (neuroprotective effect)
SEQ ID NO:46: fragment of mouse TRPM4, amino acid residues 1-346	only SEQ ID NO:47 is neuroprotective
SEQ ID NO:48: fragment of mouse TRPM4, amino acid residues 690-1036 (protein, listed as Mus musculus) IWALLLAFFCPPLIYTNLIVFRKSEEEPTQKDLDFDMDSSINGAGPPGTVEPSAKVALERRQRRRPGRALCCGKFSKRWSDFWGAPVTAFLGNVVSYLLFLLLFAHVLLVDFQPTKPSVSELLLYFWAFTLLCEELRQGLGGGWGSLASGGRGPDRAPLRHRLHLYLSDTWNQCDLLALTCFLLGVGCRLTPGLFDLGRTVLCLDFMIFTLRLLHIFTVNKQLGPKIVIVSKMMKDVFFFLFFLCVWLVAYGVATEGILRPQDRSLPSILRRVFYRPYLQIFGQIPQEEMDVALMIPGNCSMERGSWAHPEGPVAGSCVSQYANWLVVLLLIVFLLVANILLLNLLI	only SEQ ID NO:47 is neuroprotective
SEQ ID NO:53: corresponds to SEQ ID NO:47 but comprises additionally a membrane-anchor (GPI) (protein, GPI membrane anchor; Fusion protein of SEQ ID NO: and SEQ ID NO:57) LQAQVERIMTRKELLTVYSSEDGSEEFETIVLRALVKACGSSEASAYLDELRLAVAWNRVDIAQSELFRGDIQWRSFHLEASLMDALLNDRPEFVRLLISHGLSLGHFLTPVRLAQLYSAVSPNSLIRNLLDQASHASSSKSPPVNGTVELRPPNVGQVLRTLLGETCAPRYPARNTRDSYLGQDHRENDSLLMDWANKQPSTDASFEQAPWSDLLIWALLLNRAQMAIYFWEKGSNSVASALGACLLLRVMARLESEAEEAARRKDLAATFESMSVDLFGECYHNSEERAARLLLRRCPLWGEATCLQLAMQADARAFFAQDGVQSLLTQKWWGEMDSTTPLENGGTSLSEKTVLLLVTPFLAAAWSLHP	can increase the ability to protect neurons from excitotoxicity; also recorded: increased the protective effects
SEQ ID NO:49: fragment of mouse TRPM4, amino acid residues 1037-1213 (protein, listed as Mus musculus) AMFSYTFSKVHGNSDLYWKAQRYSLIREFHSRPALAPPLIIISHVRLLIKWLRRCRRCRRANLPASPVFEHFRVCLSKEAERKLLTWESVHKENFLLAQARDKRDSDSERLKRTSQKVDTALKQLGQIREYDRRLRGLEREVQHCSRVLTWMAEALSHSALLPPGAPPPPSPTGSKD	only SEQ ID NO:47 is neuroprotective
SEQ ID NO:50: fragment of mouse TRPM4, amino acid residues 347-467 (protein, listed as Mus musculus) LQAQVERIMTRKELLTVYSSEDGSEEFETIVLRALVKACGSSEASAYLDELRLAVAWNRVDIAQSELFRGDIQWRSFHLEASLMDALLNDRPEFVRLLISHGLSLGHFLTPVRLAQLYSAVS	only SEQ ID NO:5 is neuroprotective
SEQ ID NO:52: fragment of mouse TRPM4, amino acid residues 536-648 (protein, listed as Mus musculus) SYLGQDHRENDSLLMDWANKQPSTDASFEQAPWSDLLIWALLLNRAQMAIYFWEKGSNSVASALGACLLLRVMARLESEAEEAARRKDLAATFESMSVDLFGECYHNSEERAARLLLRRCPLWG	only SEQ ID NO:5 is neuroprotective
SEQ ID NO:51: fragment of mouse TRPM4, amino acid residues 468-548 (protein, listed as Mus musculus) SLGHFLTPVRLAQLYSAVSPNSLIRNLLDQASHASSSKSPPVNGTVELRPPNVGQVLRTLLGETCAPRYPARNTRDSYLGQDHRENDSLLMDWANKQPST	only SEQ ID NO:5 is neuroprotective
SEQ ID NO:47: fragment of mouse TRPM4, amino acid residues 347-689 (protein, listed as Mus musculus) LQAQVERIMTRKELLTVYSSEDGSEEFETIVLRALVKACGSSEASAYLDELRLAVAWNRVDIAQSELFRGDIQWRSFHLEASLMDALLNDRPEFVRLLISHGLSLGHFLTPVRLAQLYSAVSPNSLIRNLLDQASHASSSKSPPVNGTVELRPPNVGQVLRTLLGETCAPRYPARNTRDSYLGQDHRENDSLLMDWANKQPSTDASFEQAPWSDLLIWALLLNRAQMAIYFWEKGSNSVASALGACLLLRVMARLESEAEEAARRKDLAATFESMSVDLFGECYHNSEERAARLLLRRCPLWGEATCLQLAMQADARAFFAQDGVQSLLTQKWWGEMDSTTP	contains a neuroprotective element

Same assay, conditions: rAAV shRNA infection DIV3; NMDA 20 μM 10 min on DIV15-16; analysis 24 h later

Molecule	protection from NMDA induced excitotoxicity by knockdown of TRPM4
shTRPM4-2: shRNA against mouse TRPM4 targeting gcatccagagagggttcattc, expressed from rAAV (guide GCAUCCAGAGAGGGUUCAUUC; listed as Mus musculus)	significantly protected neurons
shTRPM4-1: shRNA against mouse TRPM4 targeting ggacatcgcccaaagtgaact, expressed from rAAV (guide GGACAUCGCCCAAAGUGAACU; listed as Mus musculus)	significantly protected neurons
